Reference: patent US20220411517A1 (LEO PHARMA A S, published 2022)
Each block holds one binder with its values, some of them ahead of it.

Legend:
[1] = biological target: T1, hIL-1RAP(1-367)_F-chLys_Avi (human, biotinylated (Avi tag) in SPR and ELISA binning; unlabeled in SET); assay: SPR (Biacore), biotinylated antigen captured, FabCys-AviHis as analyte, 1:1 fit
T1 construct: also called human IL-1RAcP (AG-12210)
Procedure: (§1) Approximately 3000 RU capture reagent was bound. This surface was used to load biotinylated antigen to generate a low-density surface for subsequent kinetic characterization (approx. 60-100 RU antigen loaded). […] After injecting the last and highest analyte concentration, a long dissociation phase was recorded. […] A blank injection of assay buffer (HBS-EP+) following the same injection pattern as described above was recorded and subtracted from specific sensorgrams during analysis (double referencing). At the end of each cycle, the sensor was regenerated with one 120 s injection of 6 M guanidine hydrochloride in 250 mM NaOH, which completely removed capture reagent with loaded biotinylated antigen and bound Fab fragments. The obtained sensorgrams were fitted to a monovalent binding model using Biacore Insight Evaluation Software. The obtained values for rate constants kₒₙ and koff were used to calculate KD.

[2] = biological target: T2, cyIL-1RAP(1-367)_F-chLys_Avi (cynomolgus, biotinylated (Avi tag) in SPR; unlabeled in SET); assay: as above
T2 construct: cynomolgus IL-1RAcP (21-367) is UniProt A0A2K5X5J5; also called cynomolgus IL-1RAcP (AG-12211)
Procedure: as §1

[3] = biological target: T1, hIL-1RAP(1-367)_F-chLys_Avi; assay: ELISA binning; competitor: coated CAN04 FabCys-AviHis; 1.5 nM biotinylated human IL-1RAcP (AG-12210) pre-incubated with the titrated Fab; captured IL-1RAcP detected with streptavidin-AP
Procedure: (§2) Epitope binning was performed using an ELISA-based competition assay. The experiments were performed using either IgG1f_AEASS or FabCys-AviHis. Antibodies were diluted to three (3) nM (for IgGs) or to 20 nM (in case of Fabs) in PBS. […] The next day 90 μL/well blocking solution (5% BSA in PBS) was added to the plate followed by an incubation at RT for at least 1 h. During incubation, the competing antibodies, including reference and negative control antibodies, were diluted in assay buffer (1xPBS, 0.5% BSA, 0.02% Tween). […] Following the incubation of the blocking solution, the ELISA plates were washed 3× with PBST. Subsequently, 20 μl/well of the prepared antibody/antigen solution was transferred to the wells and incubated for 30 min with gentle agitation. Subsequently, plates were washed 3× using PBS-T.
(§3) For detection 20 μl of a prepared streptavidin-alkaline phosphatase conjugate solution was added to the wells in order to detect bound biotinylated human IL-1RAcP. Incubation happened for 30 min with gentle agitation. Following the incubation with streptavidin-alkaline phosphatase conjugate, assay plates were washed 5× with PBS-T. Then 20 μl of AttoPhos substrate (diluted 1:5 in H₂O) was added to the wells. Plates were incubated for 10 min at RT and readout happened using a Tecan M1000 Pro Reader.
(§4) Every graph represents an individual first antibody in the FabCys-AviHis format coated on the surface. […] Subsequently, preformed antigen antibody complex was added to the respective wells with the surface coated first antibody. Detection happened via the biotin of IL-1RAcP using a streptavidin-alkaline phosphatase conjugate.

[4] = biological target: T1, hIL-1RAP(1-367)_F-chLys_Avi; assay: ELISA binning; competitor: coated Y024148 FabCys-AviHis; 1.5 nM biotinylated human IL-1RAcP (AG-12210) pre-incubated with the titrated Fab; captured IL-1RAcP detected with streptavidin-AP
Procedure: as §2
For detection 20 μl of a prepared streptavidin-alkaline phosphatase conjugate solution was added to the wells in order to detect bound biotinylated human IL-1RAcP. Incubation happened for 30 min with gentle agitation. Following the incubation with streptavidin-alkaline phosphatase conjugate, assay plates were washed 5× with PBS-T. Then 20 μl of AttoPhos substrate (diluted 1:5 in H₂O) was added to the wells. Plates were incubated for 10 min at RT and readout happened using a Tecan M1000 Pro Reader. […]

[5] = biological target: T1, hIL-1RAP(1-367)_F-chLys_Avi; assay: ELISA binning; competitor: coated Y024149 FabCys-AviHis (sheet title Y024149_FAB COATED); 1.5 nM biotinylated human IL-1RAcP (AG-12210) pre-incubated with the titrated Fab; captured IL-1RAcP detected with streptavidin-AP
Procedure: as §2, §3, §4

[6] = biological target: T1, hIL-1RAP(1-367)_F-chLys_Avi; assay: ELISA binning; competitor: coated Y024084 FabCys-AviHis (sheet title Y024084_FAB COATED); 1.5 nM biotinylated human IL-1RAcP (AG-12210) pre-incubated with the titrated Fab; captured IL-1RAcP detected with streptavidin-AP
Procedure: as §2, §3, §4

[7] = biological target: human IL-1RAcP on cells (human, UniProt Q9NPH3 21-570); assay: cell-based or functional assay
[8] = biological target: cynomolgus IL-1RAcP on cells (cynomolgus, UniProt A0A2K5X5J5 21-570); assay: cell-based or functional assay
[9] = biological target: T1, hIL-1RAP(1-367)_F-chLys_Avi; assay: solution equilibrium titration (SET), ECL read-out, IgG
Procedure: (§5) MSD SulfoTAG™ NHS-Ester (Meso Scale Diagnostics) according to the manufacturer's instructions. […] Serial dilutions of unlabeled antigen were prepared, starting with a concentration at least 10 times higher than the expected KD. Wells without antigen were used to determine Bₘₐₓ values;
(§6) wells containing only assay buffer were used to determine background. […] MSD plates were coated with antigen on standard plates (30 μL per well). After washing the plate with PBS with 0.05% Tween 20, the equilibrated samples were transferred to the plates and incubated for 20 min. […] After washing the MSD plate and adding 30 μL/well MSD Read Buffer T with surfactant, electrochemiluminescence signals were detected using a MESO SECTOR S 600 (Meso Scale Diagnostics).
(§7) The data was evaluated with XLfit (IDBS) software applying customized fitting models.

[10] = biological target: T2, cyIL-1RAP(1-367)_F-chLys_Avi; assay: as above
Procedure: as §5, §6, §7

[11] = biological target: T3, human IL1RAcP domain 1 (AG-12335) (human); assay: ELISA on directly coated human IL-1RAcP domain 1 (AG-12335), IgG titrated, S/BG
T3 construct: also called domain 1 of human IL-1RAcP
T3 chain: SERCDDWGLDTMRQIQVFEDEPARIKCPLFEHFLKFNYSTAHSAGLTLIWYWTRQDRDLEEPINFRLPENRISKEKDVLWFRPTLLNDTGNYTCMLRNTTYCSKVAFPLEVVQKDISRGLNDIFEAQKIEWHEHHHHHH
Procedure: All were assessed with direct coating of the antigen. […] An anti-His antibody served as positive control.

[12] = biological target: T4, human IL1RAcP domain 3 (AG-12127) (human); assay: ELISA on directly coated human IL-1RAcP domain 3 (AG-12127), IgG titrated, S/BG
T4 construct: also called domain 3 of human IL-1RAcP
T4 chain: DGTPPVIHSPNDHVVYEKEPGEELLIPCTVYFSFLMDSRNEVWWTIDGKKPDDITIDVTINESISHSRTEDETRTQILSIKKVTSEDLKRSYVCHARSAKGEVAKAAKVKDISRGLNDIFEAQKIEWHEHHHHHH

[13] = biological target: T5, human IL1RAcP domain 1/2 (AG-12337) (human); assay: ELISA on directly coated human IL-1RAcP domain 1/2 (AG-12337), IgG1f_AEASS titrated, S/BG
T5 construct: also called domain 1/2 of human IL-1RAcP

[14] = biological target: T1, hIL-1RAP(1-367)_F-chLys_Avi; assay: ELISA on human IL-1RAcP (AG-12210), IgG1f_AEASS titrated 0.007-200 nM, AP-coupled secondary antibody with AttoPhos, signal over background (S/BG)
Source text: (§8) Bound antibodies were detected using respective alkaline-phosphatase (AP) coupled secondary antibodies in combination with ‘AttoPhos’ fluorescence substrate. Multiple washing steps have been performed in between individual assay steps.

[15] = biological target: T2, cyIL-1RAP(1-367)_F-chLys_Avi; assay: ELISA on cynomolgus IL-1RAcP (AG-12211), IgG1f_AEASS titrated 0.007-200 nM, AP-coupled secondary antibody with AttoPhos, signal over background (S/BG)
Source text: as §8

[16] = biological target: recombinant rat IL-1RAcP (rat, UniProt Q63621 21-367, limits assumed); assay: ELISA (FIG. 1-3 cited)
[17] = biological target: T1, hIL-1RAP(1-367)_F-chLys_Avi; assay: SET, ratio of KD values
[18] = biological target: T2, cyIL-1RAP(1-367)_F-chLys_Avi; assay: SET, ratio of KD values
[19] = biological target: T6, mouse (AG-12212) IL-1RAcP (mouse, UniProt Q61730 21-367, limits assumed); assay: ELISA in Fc-capture mode of the IgGs, mouse IL-1RAcP (AG-12212), S/BG
T6 construct: Recombinant tagged antigen; also called recombinant mouse IL-1RAcP; mouse IL-1RAP
Source text: as §8

- IC50, IFNγ release, PBMC stimulated with IL-1β [7]: 4.6 nM
- IC50, IFNγ release, PBMC stimulated with IL-33 [7]: 0.82 nM
- IC50, IL-8 release, HDFa stimulated with IL-1α [7]: 22 nM
- IC50, IL-8 release, HDFa stimulated with IL-36α [7]: 0.18 nM
- IC50, IL-8 release, HDFa stimulated with IL-36β [7]: 0.28 nM
- IC50, IL-8 release, HDFa stimulated with IL-36γ [7]: 0.24 nM
- IC50, IL-8 release, HEKa stimulated with IL-1β [7]: 670 nM
- IC50, IL-8 release, HEKa stimulated with IL-36β [7]: 1.98 nM
- IC50, IL-8 release, CyDFa stimulated with cynomolgus IL-1β [8]: 1 nM
- Kd [9]: 0.003 nM
- Kd [10]: 0.003 nM
B2: h11C5 YKD (antibody, human IgG1, kappa, V domains shown)
VH: EVQLVESGGGLVQPGGSLRLSCAASGFTFSNYAMSWVRQAPGKGLEWVATVTEGGDYNYYLDDVKGRFTISRDNAKNSLYLQMNSLRAEDTAVYYCARDDWPYFFDYWGQGTLVTVSS
VL: DIQMTQSPSSLSASVGDRVTITCRASENIYSNLAWYQQKPGKSPKLLVYGYKNLADVPSRFSGSGSGTDYTLTISSLQPEDFATYYCQHFKTTPRTFGGGTKVEIKR
notes: Variable domains of h11C5 YKD on the same modified IgG1 kappa constant regions (AEASS); Printed as 'h1105' in much of the text; also called h1105

- binding result [16]: no binding
- fold stronger KD than reference R001031 (CAN04) [17]: ~10.5 fold
- fold stronger KD than reference R001032 (1A05) [17]: ~5.5 fold
- fold stronger KD than reference R001031 (CAN04) [18]: ~16 fold
- fold stronger KD than reference R001032 (1A05) [18]: ~15 fold
- IC50, IFNγ release, PBMC stimulated with IL-1β [7]: 1.2 nM
- IC50, IFNγ release, PBMC stimulated with IL-33 [7]: 0.72 nM
- IC50, IL-8 release, HDFa stimulated with IL-1α [7]: 1.2 nM
- IC50, IL-8 release, HDFa stimulated with IL-36α [7]: 0.014 nM
- IC50, IL-8 release, HDFa stimulated with IL-36β [7]: 0.039 nM
- IC50, IL-8 release, HDFa stimulated with IL-36γ [7]: 0.042 nM
- IC50, IL-8 release, HEKa stimulated with IL-1β [7]: 35 nM
- IC50, IL-8 release, HEKa stimulated with IL-36β [7]: 0.2 nM
- IC50, IL-8 release, CyDFa stimulated with cynomolgus IL-1β [8]: 0.043 nM
- Kd [9]: 0.002 nM
- Kd [10]: 0.001 nM
- binding result [19]: no binding (tested: 200 nM)
- binding result [11]: no binding (tested: 2e-7 M)
- binding result [12]: no binding (tested: 2e-7 M)
- EC50 (read off the curve) [13]: ~6 nM
- EC50 (read off the curve) [14]: 0.1 to 0.2 nM
- EC50 (read off the curve) [15]: 0.1 to 0.2 nM
B4: Y024148_h_IgG1f_AEASS (antibody, V domains shown)
VH: EVQLVESGGGLVQPGGSLRLSCAASGGTIGGSAVHWVRQAPGKGLVWVSRILTYSSTTQYAESVKGRFTISRDNAKNTLYLQMNSLRAEDTAVYYCARGSSEYPKFDIWGQGTLVTVSS
VL: DIQMTQSPSTLSASVGDRVTITCRASQSISSWLAWYQQKPGKAPKLLIYDASSLESGVPSRFSGSGSGTEFTLTISSLQPEDFATYYCHQLLIYPHTFGQGTKVEIKR
notes: Human IgG1f with AEASS effector-silencing residues, kappa light chain

- Kd [1]: 0.167 nM
- Kd [2]: 0.128 nM
- IC50 (read off the curve) [3]: ~1 nM
- IC50 (read off the curve) [5]: ~2 nM
- IC50 (read off the curve) [6]: ~1 nM
B6: CAN04_h_FabCys-AviH (Fab, V domains shown)
VH: QVQLVQSGAEVKKPGSSVKVSCKASGYAFSSSWMNWVRQAPGQGLEWMGRIYPGDGNTHYAQKFQGRVTLTADKSTSTAYMELSSLRSEDTAVYYCGEGYLDPMDYWGQGTLVTVSS
VL: DIQMTQSPSSLSASVGDRVTITCSASQGINNYLNWYQQKPGKAPKLLIHYTSGLHAGVPSRFSGSGSGTDYTLTISSLQPEDVATYYCQQYSILPWTFGGGTKVEIKR
notes: Tested as disulphide-linked Fab with Avi and His tags; also called CAN04 in FabCys-AviHis format; CAN04 (R001031)

The remaining lines, values behind:

B1: 1A05_rbh_FabCys-AviH (Fab, V domains shown)
VH: LEQSGGGAEGGLVKPGGSLELCCKASGFSLSTSYWRCWVRQAPGKGLEWIGCIYAGSGDVTYYANWVNGRFTLSRDIDQSTGCLQLNSLTAADTAMYYCASGVGFGYFNLWGQGTLVTVSS
VL: ALVMTQTPSPVSAAVGGTVTINCQASEDIYSNLAWFQQKPGQPPKLLIYDASTLASGVPSRFSGSGSGTEFTLTISGLQSDDAATYYCLGVYTHISADNAFGGGTEVVVKR
notes: Tested as disulphide-linked Fab with Avi and His tags; also called 1A05 in FabCys-AviHis format; 1A05 (R001032)
- Kd [1]: 0.221 nM
- Kd [2]: 0.184 nM
- IC50 (read off the curve) [3]: ~1 nM
- IC50 (read off the curve) [4]: ~1 nM
- IC50 (read off the curve) [5]: ~1 nM
- IC50 (read off the curve) [6]: ~1 nM

B3: Y024084_h_IgG1f_AEASS (antibody, V domains shown)
VH: QVQLVQSGAEVKKPGASVKVSCKASGYTFTSYYMHWVRQAPGQGLEWMGIINPSGGSTSYAQKFQGRVTMTRDTSTSTVYMELSSLRSEDTAVYYCARGFVTSGIDYWGQGTLVTVSS
VL: QSVLTQPPSVSAAPGQKVTISCSGSSSNIGNNYVSWYQQLPGTAPKLLIYDNNKRPSGIPDRFSGSKSGTSATLGITGLQTEDEADYYCQTWTYTGRLWIVFGGGTKLTVLG
notes: also called Morphosys 24084; Mor Y024084
- IC50, IFNγ release, PBMC stimulated with IL-1β [7]: 5.2 nM
- IC50, IFNγ release, PBMC stimulated with IL-33 [7]: 0.69 nM
- IC50, IL-8 release, HDFa stimulated with IL-1α [7]: 20 nM
- IC50, IL-8 release, HDFa stimulated with IL-36α [7]: 0.025 nM
- IC50, IL-8 release, HDFa stimulated with IL-36β [7]: 0.033 nM
- IC50, IL-8 release, HDFa stimulated with IL-36γ [7]: 0.022 nM
- IC50, IL-8 release, HEKa stimulated with IL-1β [7]: 19 nM
- IC50, IL-8 release, HEKa stimulated with IL-36β [7]: 0.029 nM
- IC50, IL-8 release, CyDFa stimulated with cynomolgus IL-1β [8]: 0.12 nM
- Kd [9]: 0.004 nM
- Kd [10]: 0.004 nM
- binding result [11]: no binding (tested: 2e-7 M)
- binding result [12]: no binding (tested: 2e-7 M)
- EC50 (read off the curve) [13]: ~3 nM
- EC50 (read off the curve) [14]: 0.1 to 0.2 nM
- EC50 (read off the curve) [15]: 0.1 to 0.2 nM

B5: R001031 (CAN04) (antibody, human IgG1, kappa, V domains shown)
VH: B6 VH
VL: B6 VL
notes: Variable domains of prior art CAN04 on human IgG1 kappa constant regions with AEASS
- IC50, IFNγ release, PBMC stimulated with IL-1β [7]: 3.5 nM
- IC50, IFNγ release, PBMC stimulated with IL-33 [7]: 1.3 nM
- IC50, IL-8 release, HDFa stimulated with IL-1α [7]: 3.6 nM
- IC50, IL-8 release, HDFa stimulated with IL-36α [7]: 0.019 nM
- IC50, IL-8 release, HDFa stimulated with IL-36β [7]: 0.024 nM
- IC50, IL-8 release, HDFa stimulated with IL-36γ [7]: 0.008 nM
- IC50, IL-8 release, HEKa stimulated with IL-1β [7]: 18 nM
- IC50, IL-8 release, HEKa stimulated with IL-36β [7]: 0.02 nM
- IC50, IL-8 release, CyDFa stimulated with cynomolgus IL-1β [8]: 1 nM
- Kd [9]: 0.021 nM
- Kd [10]: 0.016 nM
- binding result [11]: no binding (tested: 2e-7 M)
- binding result [12]: no binding (tested: 2e-7 M)
- EC50 (read off the curve) [13]: ~3 nM
